# Positions count from the first letter of the chain named.
# B1: CD71-binding FN3 domain of SEQ ID NO: 194 (designed binder)
# chain: MSLPAPKNLVVSRVTEDSARLSWTAPDAAFDSFEIGYFENLYLGEAIVLTVPGSERSYDLTGLKPGTEYPVWIGGVKGGTWSVPLSTIFTT
# B2: CD71-binding FN3 domain of SEQ ID NO: 160 (designed binder)
# chain: B1 chain with P70W, W72Q, T80N, T87A
# B3: CD71-binding FN3 domain of SEQ ID NO: 151 (designed binder)
# chain: MSLPAPKNLVVSRITEDSARLSWTAPDAAFDSFEIAYFETCRTGEAIVLTVPGSERSYDLTGLKPGTEYRVWIGGVKGGVWSRPLSAIVTT
# B4: CD71-binding FN3 domain of SEQ ID NO: 158 (designed binder)
# chain: B3 chain with I14V, T40R, C41T, R42W, T43F, R70W, W72Q, V80D, R83K, V89F
# B5: CD71-binding FN3 domain of SEQ ID NO: 189 (designed binder)
# chain: B1 chain with N40H, L41T, L43Y, P70W, W72Q, T80N, V83A, T87A
# B6: CD71-binding FN3 domain of SEQ ID NO: 190 (designed binder)
# chain: B1 chain with V11I, P70W, W72Q, T80N, V83A, T87A, F89S
# B7: CD71-binding FN3 domain of SEQ ID NO: 155 (designed binder)
# chain: B1 chain with K7E, P70W, W72Q, T80V, V83R, T87A
# B8: CD71-binding FN3 domain of SEQ ID NO: 152 (designed binder)
# chain: B1 chain with E34D, N40A, L41T, L43Y, P70W, W72Q, T80N, V83A, T87A
# B9: CD71-binding FN3 domain of SEQ ID NO: 169 (designed binder)
# chain: B1 chain with P70W, W72Q, T80N, V83A, T87A, I88T
# B10: CD71-binding FN3 domain of SEQ ID NO: 187 (designed binder)
# chain: B1 chain with F38W, L41A, L43K, P70R, T80V, V83R, T87A
# B11: CD71-binding FN3 domain of SEQ ID NO: 193 (designed binder)
# chain: B1 chain with P70W, W72Q, T80N, V83E, T87A
# B12: CD71-binding FN3 domain of SEQ ID NO: 173 (designed binder)
# chain: MSLPAPKNLVVSRVTEDSARLSWTAPDAAFDSFEIAYQELSLWGEAIVLTVPGSERSYDLTGLKPGTEYYVHIGGVKGGIWSSPLVAHFTT
# B13: CD71-binding FN3 domain of SEQ ID NO: 188 (designed binder)
# chain: B1 chain with F38W, L41A, L43K, P70V, W72F, T80H, W81G, V83Q, T87A
# B14: CD71-binding FN3 domain of SEQ ID NO: 175 (designed binder)
# chain: B12 chain with Y70V, H72F, I80V, S83V, V86S, H88I
# B15: CD71-binding FN3 domain of SEQ ID NO: 164 (designed binder)
# chain: MSLPAPKNLVVSRVTEDSARLSWTAPDAAFDSFFIGYLEPQPPGEAIHLYVPGSERSYDLTGLKPGTEYWVQIGGVKGGNWSAPLSAIFTT
# B16: CD71-binding FN3 domain of SEQ ID NO: 150 (designed binder)
# chain: B1 chain with E34D, L41S, L43A, P70Y, W72S, G74A, T80R, W81F, V83P, T87A
# B17: CD71-binding FN3 domain of SEQ ID NO: 157 (designed binder)
# chain: B1 chain with F38G, N40F, L41T, L43Y, P70W, W72Q, T80N, V83N, T87A
# B18: CD71-binding FN3 domain of SEQ ID NO: 183 (designed binder)
# chain: MSLPAPKNLVISRVTEDSARLSWTAPDAAFDSFEIVYAEPVRFGEAIVLTVPGSERSYDLTGLKPGTEYWVQIGGVKGGEWSSPLSAIFTT
# B19: CD71-binding FN3 domain of SEQ ID NO: 172 (designed binder)
# chain: MSRPAPKNLVVSRVTEDSARLSWTAPGAAFDSFEIAYFERTWFGEAIVLTVPSSERSYDLTGLKPGTEYWVQIGGVKGGDWSKPLSAIFTT
# Target: T1, human CD71 extracellular domain (human, UniProt P02786 89-760)
# T1 construct: also called hCD71; human CD71-ECD
# Experiment: primary ELISA; also: test concentration or dose not given here
# T1 sequence (P02786 89-760): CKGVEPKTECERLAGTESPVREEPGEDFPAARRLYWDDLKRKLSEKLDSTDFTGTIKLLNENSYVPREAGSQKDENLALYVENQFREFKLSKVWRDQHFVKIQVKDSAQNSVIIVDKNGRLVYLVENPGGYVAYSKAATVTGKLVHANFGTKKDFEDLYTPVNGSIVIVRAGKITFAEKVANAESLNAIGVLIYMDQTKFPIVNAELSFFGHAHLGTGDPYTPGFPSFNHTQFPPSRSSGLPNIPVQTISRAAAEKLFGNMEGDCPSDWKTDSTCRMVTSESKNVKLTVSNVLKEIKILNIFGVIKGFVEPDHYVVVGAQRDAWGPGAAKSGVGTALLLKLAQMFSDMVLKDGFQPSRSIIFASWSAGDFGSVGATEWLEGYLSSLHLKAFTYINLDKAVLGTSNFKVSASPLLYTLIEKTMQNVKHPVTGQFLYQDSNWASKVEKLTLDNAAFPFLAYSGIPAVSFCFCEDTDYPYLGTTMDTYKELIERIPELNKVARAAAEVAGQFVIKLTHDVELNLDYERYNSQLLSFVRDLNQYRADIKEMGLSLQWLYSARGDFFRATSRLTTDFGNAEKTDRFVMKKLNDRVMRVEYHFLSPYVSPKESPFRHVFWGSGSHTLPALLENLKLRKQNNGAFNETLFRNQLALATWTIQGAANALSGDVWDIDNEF
row,Binder,RLU [RLU]
1,B1,2.56e+06
2,B2,4.38e+06
3,B3,4.04e+06
4,B4,4.48e+06
5,B5,3.45e+06
6,B6,3.66e+06
7,B7,3.55e+06
8,B8,2.36e+06
9,B9,2.63e+06
10,B10,3.06e+06
11,B11,2.33e+06
12,B12,4.41e+06
13,B13,1.11e+06
14,B14,1.01e+06
15,B15,5.55e+06
16,B16,3.49e+06
17,B17,2.89e+06
18,B18,3.19e+06
19,B19,4.34e+06

# Target: T2, apical domain of cynomolgus CD71 (cynomolgus, UniProt A0A2K5X958 189-383)
# T2 construct: domain: apical domain; also called Cyno apical domain
# Experiment: primary ELISA; also: test concentration or dose not given here
# T2 sequence (A0A2K5X958 entry or part of it): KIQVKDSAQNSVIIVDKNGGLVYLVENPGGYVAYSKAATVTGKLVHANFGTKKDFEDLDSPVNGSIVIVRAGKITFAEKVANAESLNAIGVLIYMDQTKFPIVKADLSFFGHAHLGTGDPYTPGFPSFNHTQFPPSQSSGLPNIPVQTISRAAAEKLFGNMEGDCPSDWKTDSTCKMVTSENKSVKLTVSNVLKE
row,Binder,RLU [RLU]
1,B1,3.78e+06
2,B2,5.02e+06
3,B3,5.1e+06
4,B4,4.63e+06
5,B5,4.87e+06
6,B6,5.2e+06
7,B7,5.19e+06
8,B8,4.21e+06
9,B9,4.35e+06
10,B10,4.22e+06
11,B11,3.95e+06
12,B12,5.65e+06
13,B13,3.37e+06
14,B14,4.29e+06
15,B15,3.78e+06
16,B16,4.18e+06
17,B17,4.32e+06
18,B18,4.47e+06
19,B19,5.23e+06

# Target: T1, human CD71 extracellular domain
# Experiment: primary ELISA, signal ratio to HSA
row,Binder,hCD71:HSA
1,B1,52
2,B2,88
3,B3,22
4,B4,96
5,B5,1380
6,B6,48
7,B7,151
8,B8,164
9,B9,289
10,B10,67
11,B11,68
12,B12,234
13,B13,33
14,B14,21
15,B15,286
16,B16,98
17,B17,355
18,B18,108
19,B19,31

# Target: T2, apical domain of cynomolgus CD71
# Experiment: primary ELISA, signal ratio to HSA
row,Binder,Cyno apical domain:HSA
1,B1,77
2,B2,100
3,B3,28
4,B4,99
5,B5,1950
6,B6,68
7,B7,220
8,B8,291
9,B9,478
10,B10,93
11,B11,116
12,B12,300
13,B13,100
14,B14,91
15,B15,195
16,B16,118
17,B17,530
18,B18,15
19,B19,37

# Reference: patent US20260151494A1 (ARO BIOTHERAPEUTICS, published 2026)
